Measured values: patent US20210206877A1 (Genentech, published 2021)
Where two headings read alike, the source gives them in different places.

Experiments:
Experiment in all cases: cell-based or functional assay
[1] = molecular target: T1, BACE1 endogenous to primary cortical neurons from E16.5 CD1 mice (mouse, UniProt P56818 46-501)
[2] = molecular target: T1, BACE1 endogenous to primary cortical …; remark: listed apart in the source
[3] = molecular target: T1, BACE1 endogenous to primary cortical …; remark: listed apart in the source
[4] = molecular target: T1, BACE1 endogenous to primary cortical …; remark: listed apart in the source
murine BACE1 ECD = molecular target: murine BACE1 ECD
human BACE1 ECD = human BACE1 ECD (human, UniProt P56817)
[5] = molecular target: BACE1 ECD (as used in the enzyme activity assay) (UniProt P56817 22-457, limits assumed)
Wherever % inhibition, FRET short substrate assay (negative = activation) is given: test concentration or dose not given here.

T1 sequence (P56818 46-501): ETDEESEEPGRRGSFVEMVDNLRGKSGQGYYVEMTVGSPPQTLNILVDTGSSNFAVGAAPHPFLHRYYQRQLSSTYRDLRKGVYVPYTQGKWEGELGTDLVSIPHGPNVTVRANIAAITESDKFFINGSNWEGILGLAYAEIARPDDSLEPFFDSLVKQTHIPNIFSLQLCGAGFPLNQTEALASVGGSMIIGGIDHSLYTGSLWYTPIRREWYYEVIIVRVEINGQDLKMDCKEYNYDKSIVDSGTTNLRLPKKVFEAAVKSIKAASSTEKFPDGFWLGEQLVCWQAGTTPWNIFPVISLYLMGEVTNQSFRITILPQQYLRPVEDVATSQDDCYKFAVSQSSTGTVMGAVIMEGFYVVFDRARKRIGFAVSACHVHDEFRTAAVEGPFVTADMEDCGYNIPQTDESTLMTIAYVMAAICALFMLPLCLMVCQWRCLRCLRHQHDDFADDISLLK
Chain of BACE1 ECD (as used in the enzyme activity assay) (P56817 22-457 limits assumed): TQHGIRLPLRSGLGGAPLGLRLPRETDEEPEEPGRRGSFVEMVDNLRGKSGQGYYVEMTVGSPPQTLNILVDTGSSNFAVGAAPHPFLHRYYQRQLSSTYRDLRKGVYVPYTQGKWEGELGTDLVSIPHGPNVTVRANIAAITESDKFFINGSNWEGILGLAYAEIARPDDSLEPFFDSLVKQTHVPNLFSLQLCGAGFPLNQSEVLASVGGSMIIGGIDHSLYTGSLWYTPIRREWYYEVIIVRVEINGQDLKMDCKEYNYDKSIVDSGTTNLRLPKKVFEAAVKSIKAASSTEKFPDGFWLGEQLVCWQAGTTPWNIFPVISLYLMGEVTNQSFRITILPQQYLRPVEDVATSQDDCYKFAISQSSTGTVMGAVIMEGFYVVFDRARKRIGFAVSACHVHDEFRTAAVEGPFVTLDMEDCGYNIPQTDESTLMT
Chain of murine BACE1 ECD (single chain, as listed by the source limits assumed): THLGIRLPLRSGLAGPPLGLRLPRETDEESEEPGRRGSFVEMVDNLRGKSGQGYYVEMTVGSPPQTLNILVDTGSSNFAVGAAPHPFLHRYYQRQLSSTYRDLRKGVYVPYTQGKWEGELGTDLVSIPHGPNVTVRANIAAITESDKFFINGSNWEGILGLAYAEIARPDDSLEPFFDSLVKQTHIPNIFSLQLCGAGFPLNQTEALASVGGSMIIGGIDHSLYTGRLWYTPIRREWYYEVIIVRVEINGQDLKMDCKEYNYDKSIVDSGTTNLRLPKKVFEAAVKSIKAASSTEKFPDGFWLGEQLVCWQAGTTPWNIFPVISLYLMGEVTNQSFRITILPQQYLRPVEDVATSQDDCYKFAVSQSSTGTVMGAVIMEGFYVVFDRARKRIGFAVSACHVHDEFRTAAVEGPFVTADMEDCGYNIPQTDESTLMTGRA
Chain of human BACE1 ECD (P56817 22-457): as the sequence (P56817 22-457 limits assumed) above

max % inhibition, Abeta x-40 in mouse cortical neurons [3] [%] | Binder | also measured
 | antibody 6266 (antibody, V domains shown) VH: EVQLVQSGAEVKKPGSSVKVSCKASGGTLSGYGVSWVRQAPGQGLEWMGNIIPGFGTANYAQKFQGRVTITADESTSTAYMELSSLRSEDTAVYYCARSGGTKYGMLDVWGQGTMVTVSS VL: EIVMTQSPATLSVSPGERATLSCRASQSVSSNLAWYQQKPGQAPRLLIYGASTRATGIPARFSGSGSGTEFTLTISSLQSEDFAVYYCQQLILWPPRTFGGGTKVEIK | IC50, inhibition of Aβx-40 production in primary mouse cortical neuron cultures (sandwich ELISA of supernatants) [1]: 1.7 nM; max % inhibition, Abeta x-40 in mouse cortical neurons [2]: 87%
71 | 6300 (antibody, V domains shown) VH: QVQLVQSGAEVKKPGSSVKVSCKASGGTLSGYAISWVRQAPGQGLEWMGNIIPGFGTANYAQKSQGRVTITADESTSTAYMELSSLRSEDTAVYYCARSGGTRYGMLDVWGQGTMVTVSS VL: EIVLTQSPATLSVSPGERATLSCRASQSVGSNLAWYQQKPGQAPRLLIYGASTRATGIPARFSGSGSGTEFTLTISSLQSEDFAVYYCQQSFLWPPRTFGGGTKVEIK | 
70 | 6299 (antibody, V domains shown) VH: QVQLVQSGAEVKKPGSSVKVSCKASGGTLSGYAISWVRQAPGQGLEWMGNIIPGFGTANYAQKSQGRVTITADESTSTAYMELSSLRSEDTAVYYCARSGGTRYGMLDVWGQGTMVTVSS VL: EIVMTQSPATLSVSPGERATLSCRASQSVGSNLAWYQQKPGQAPRLLIYGASTRATGIPARFSGSGSGTEFTLTISSLQSEDFAVYYCQQSYLWPPRTFGGGTKVEIK | 
76 | 6303 (antibody, V domains shown) VH: QVQLVQSGAEVKKPGSSVKVSCKASGGTLSGYAISWVRQAPGQGLEWMGNIIPGFGTANYAQKSQGRVTITADESTSTAYMELSSLRSEDTAVYYCARSGGTRYGMLDVWGQGTMVTVSS VL: EIVMTQSPATLSVSPGERATLSCRASQSVSSNLAWYQQKPGQAPRLLIFGASTRATGIPARFSGSGSGTEFTLTISSLQSEDFAVYYCQQLLTWPPRTFGGGTKVEIK | 
67 | 6305 (antibody, V domains shown) VH: QVQLVQSGAEVKKPGSSVKVSCKASGGTLSGYAISWVRQAPGQGLEWMGNIIPGFGTANYAQKSQGRVTITADESTSTAYMELSSLRSEDTAVYYCARSGGTRYGMLDVWGQGTMVTVSS VL: EIVLTQSPATLSVSPGERATLSCRASQSVGSNLAWYQQKPGQAPRLLIYGASTRATGIPARFSGSGSGTEFTLTISSLQSEDFAVYYCQQSFVWPPRTFGGGTKVEIK | 
 | 5897 (antibody, V domains shown) VH: QLQLQESGPGLVKPSETLSLTCTVSGGSISWSSYYWSWIRQPPGKGLEWIGSIYKSGRTYYNPSLKSRVTISVDTSKNQFSLKLSSVTAADTAVYYCARVGHGISYFDLWGRGTLVTVSS VL: EIVLTQSPATLSLSPGERATLSCRASQSVSSYLAWYQQKPGQAPRLLIYDASNRATGIPARFSGSGSGTDFTLTISSLEPEDFAVYYCQQSLTWPPRTFGGGTKVEIK | max % inhibition, Abeta x-40 in mouse cortical neurons [4]: 62%; % inhibition, FRET short substrate assay (negative = activation) (murine BACE1 ECD): -3%; % inhibition, FRET short substrate assay (negative = activation) (human BACE1 ECD): 1%; EC50, FRET short substrate assay [5]: 0.528 nM; EC50, HTRF long substrate assay [5]: 1.39 nM
71 | 6314 (antibody, V domains shown) VH: QLQLQESGPGLVKPSETLSLTCTVSGGSISRGSYYWGWIRQPPGKGLEWIGMIYYSGSTWYNPSLKSRVTISVDTSKNQFSLKLSSVTAADTAVYYCARVGHGVSYFDLWGRGTLVTVSS VL: EIVLTQSPATLSLSPGERATLSCRASQSVSSYLAWYQQKPGQAPRLLIYDASNRATGIPARFSGSGSGTDFTLTISSLEPEDFAVYYCQQSIVWPPRTFGGGTKVEIK | 
63 | 6311 (antibody, V domains shown) VH: QLQLQESGPGLVKPSETLSLTCTVSGGSISWSSYYWSWIRQPPGKGLEWIGSIYRSGRTYYNPSLKSRVTISVDTSKNQFSLKLSSVTAADTAVYYCARVGHGINYFDLWGRGTLVTVSS VL: EIVLTQSPATLSLSPGERATLSCRASQSVSSYLAWYQQKPGQAPRLLIYDASNRATGIPARFSGSGSGTDFTLTISSLEPEDFAVYYCQQSLTWPPRTFGGGTKVEIK | 
73 | 6315 (antibody, V domains shown) VH: QLQLQESGPGLVKPSETLSLTCTVSGGSISRGSYYWGWIRQPPGKGLEWIGMIYYSGSTWYNPSLKSRVTISVDTSKNQFSLKLSSVTAADTAVYYCARVGHGVSYFDLWGRGTLVTVSS VL: EIVLTQSPATLSLSPGERATLSCRASQSVSSYLAWYQQKPGQAPRLLIYDASKRATGIPARFSGSGSGTDFTLTISSLEPEDFAVYYCQQSLVWPPRTFGGGAKVEIK | 
68 | 6307 (antibody, V domains shown) VH: QLQLQESGPGLVKPSETLSLTCTVSGGSISWSSYYWSWIRQPPGKGLEWIGSIYRSGRTYYNPSLKGRVTISVDTSKNQFSLKLSSVTAADTAVYYCARVGHGINYFDLWGRGTLVTVSS VL: EIVLTQSPATLSLSPGERATLSCRASQSVSSYLAWYQQKPGQAPRLLIYDASNRATGIPARFSGSGSGTDFTLTISSLEPEDFAVYYCQQSIVWPPRTFGGGTKVEIK | 
60 | 6309 (antibody, V domains shown) VH: QLQLQESGPGLVKPSETLSLTCTVSGGSISWSSYYWSWIRQPPGKGLEWIGSIYRSGRTYYNPSLKSRVTISVDTSKNQFSLKLSSVTAADTAVYYCARVGHGINYFDLWGRGTLVTVSS VL: EIVLTQSPATLSLSPGERATLSCRASQSVSSYLAWYQQKPGQAPRLLIYDASNRATGIPARFSGSGSGTDFTLTISSLEPEDFAVYYCQQSITWPPRTFGGGTKVEIK | 
71 | 6310 (antibody, V domains shown) VH: QLQLQESGPGLVKPSETLSLTCTVSGGSISWSSYYWSWIRQPPGKGLEWIGSIYRSGRTYYNPSLKSRVTISVDTSKNQFSLKLSSVTAADTAVYYCARVGHGINYFDLWGRGTLVTVSS VL: EIVLTQSPATLSLSPGERATLSCRASQSVSSYLAWYQQKPGQAPRLLIYDASNRATGIPARFSGSGSGTDFTLTISSLEPEDFAVYYCQQSVTWPPRTFGGGTKVEIK | 
60 | 6308 (antibody, V domains shown) VH: QLQLQESGPGLVKPSETLSLTCTVSGGSISWSSYYWSWIRQPPGKGLEWIGSIYRSGRTYYNPSLKSRVTISVDTSKNQFSLKLSSVTAADTAVYYCARVGHGINYFDLWGRGTLVTVSS VL: EIVLTQSPATLSLSPGERATLSCRASQSVSSYLAWYQQKPGQAPRLLIYDASKRATGIPARFSGSGSGTDFTLTISSLEPEDFAVYYCQQSLVWPPRTFGGGTKVEIK | 
67 | 6313 (antibody, V domains shown) VH: QLQLQESGPGLVKPSETLSLTCTVSGGSISRGSYYWGWIRQPPGKGLEWIGMIYYSGSTWYNPSLKSRVTISVDTSKNQFSLKLSSVTAADTAVYYCARVGHGVSYFDLWGRGTLVTVSS VL: EIVLTQSPATLSLSPGERATLSCRASQSVSSYLAWYQQKPGQAPRLLIYDASNRATGIPARFSGSGSGTDFTLTISSLEPEDFAVYYCQQAYVWPPRTFGGGTKVEIK | 
